We go through one substance from US20240076390A1.

The target of assay [1] is Recombinant Human Axl Protein Axl-tag 5 (human) (UniProt P30530). Put plainly: competition ELISA on immobilized Axl-tag 5; unlabeled antibody 50 ug/mL; competitor Biot-M77-297b81.1.1 1 ug/mL. (ELISA stands for enzyme-linked immunosorbent assay.)
The target is the same in assay [2]. Put plainly: competition ELISA on immobilized Axl-tag 5; unlabeled antibody 50 ug/mL; competitor Biot-M77-297b81.1.1 1 ug/mL (signal is of the biotinylated antibody).
For assay [3] the target is unchanged. Put plainly: competition ELISA on immobilized Axl-tag 5; unlabeled antibody 50 ug/mL; competitor Biot-v77-2a37.1 1 ug/mL (signal is of the biotinylated antibody).
For assay [4] the target is unchanged. Kind of assay: competition ELISA on immobilized Axl-tag 5; unlabeled antibody 50 ug/mL; competitor Biot-v77-2a37.1 1 ug/mL.

Sequence of UniProt P30530 (P30530 26-451): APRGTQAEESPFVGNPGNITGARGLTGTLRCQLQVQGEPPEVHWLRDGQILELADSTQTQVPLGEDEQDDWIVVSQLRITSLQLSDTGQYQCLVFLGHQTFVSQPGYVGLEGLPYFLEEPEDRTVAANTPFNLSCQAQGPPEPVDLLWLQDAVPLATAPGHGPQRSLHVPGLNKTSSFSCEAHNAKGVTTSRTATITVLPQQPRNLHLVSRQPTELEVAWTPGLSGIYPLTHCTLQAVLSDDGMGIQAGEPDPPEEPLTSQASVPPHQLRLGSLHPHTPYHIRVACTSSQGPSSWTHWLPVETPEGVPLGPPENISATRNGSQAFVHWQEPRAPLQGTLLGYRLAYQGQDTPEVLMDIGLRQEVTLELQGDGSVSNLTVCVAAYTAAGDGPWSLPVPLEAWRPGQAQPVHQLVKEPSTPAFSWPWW

Regarding “AXL(C89E7) rabbit anti-human Axl monoclonal antibody (Cell Signaling)”, the values for the % competition in assay [1] and in assay [4] were 1.5% and 3.3%, respectively. The results for the OD (650 nm) in assay [2] and in assay [3] were 2.13 OD (650 nm) and 1.81 OD (650 nm), respectively.
